Among the data in US20110287936 are Kd values, retold here.

Assay in all cases: SPR
In data set [1] the test system is L7-1C03-A5 (EsR1) (Artificial Sequence). The following applies: ka 4.7e4 M-1 s-1, kd 7.8e-3 s-1; operator sequence not given for SPR.
Data set [2] has as its target L7-1F08-A11 (L7A11, EsR A11) (Artificial Sequence) (UniProt P04483). The following applies: ka 7.1e4 M-1 s-1, kd 1.7e-2 s-1; operator sequence not given for SPR.
Data set [3] has as its system L7-1G06-B2 (Artificial Sequence). The settings on record: ka 4.6e4 M-1 s-1, kd 1.9e-2 s-1; operator sequence not given for SPR.
In data set [4] the test system is L7-3E03-D1 (EsR D01) (Artificial Sequence). The settings on record: ka 5.5e4 M-1 s-1, kd 1.1e-2 s-1; operator sequence not given for SPR.
Data set [5] concerns the target Wt TetR(B) (Tn10) (Escherichia coli) (UniProt P04483). The following applies: ka 3.3e5 M-1 s-1, kd 3.0e-3 s-1; operator sequence not given for SPR.

Consider tet operator used for SPR, for which the dissociation constant (Kd) in data set [1] is 150 nM; in data set [2], 250 nM; in data set [3], 430 nM; in data set [4] it was 200 nM; in data set [5] it was 9 nM.

What is called Kd is the concentration at which binding is half-saturated. Read a low Kd as tighter binding.
